Laboratory results published in article PMC5413351 (2017).
Where no end group is shown, it is not given here. fluorescein‑5‑maleimide = fluorescein-5-maleimide

B1: fluorescently labeled Vta1^VSL S278C (domain or fragment)
chain: MASNAARVVATAKDFDKVGLGIIGYYLQLYAVELILSEEDRSQEMTALATELLDTIEAFKKEIGGESEAEDSDKSLHVMNTLIHDQEKAKIYMLNFTMSLYNEKLKQLKDGPWDVMLKRSLWCCIDLFSCILHLWKENISETSTNSLQKRIKYCKIYLSKLAKGEIGSSDEKTLDYADFADDSEEIKDEDVDHQTSDLENNNNDKVEGLAPKDQTTSYEPVDEVPEFIDDADSVNEEEQTVDKNEDAITKDEQQVVKKEVDLTRPSAPSEPAAAEHKCYTKDELTKIMDRASKIEQIQKLAKYAISALNYEDLPTAKDELTKALDLLNSI
modifications: fluorescein-5-maleimide on the single cysteine (S278C)
B2: fluorescently labeled Vta1^VSL S278C (domain or fragment)
chain: C(fluorescein‑5‑maleimide)YTKDELTKIMDRASKIEQIQKLAKYAISALNYEDLPTAKDELTKALDLLNSI

Experiments:
Assay in all cases: FP
Vps4^101-437-Hcp1 E322A = Vps4^101-437-Hcp1 E322A (S. cerevisiae | Pseudomonas aeruginosa, UniProt P52917 101-437, E322A)
Vps4^101-437-Hcp1 R325D = Vps4^101-437-Hcp1 R325D (S. cerevisiae | Pseudomonas aeruginosa, UniProt P52917 101-437, R325D)
Vps4^101-437-Hcp1 = Vps4^101-437-Hcp1 (S. cerevisiae | Pseudomonas aeruginosa, UniProt P52917 101-437)
Vps4^101-437-Hcp1 K321A = Vps4^101-437-Hcp1 K321A (S. cerevisiae | Pseudomonas aeruginosa, UniProt P52917 101-437, K321A)
Vps4^101-437 L151D = biological target: T1, Vps4^101-437 L151D (S. cerevisiae, UniProt P52917 101-437, L151D)
T1 sequence: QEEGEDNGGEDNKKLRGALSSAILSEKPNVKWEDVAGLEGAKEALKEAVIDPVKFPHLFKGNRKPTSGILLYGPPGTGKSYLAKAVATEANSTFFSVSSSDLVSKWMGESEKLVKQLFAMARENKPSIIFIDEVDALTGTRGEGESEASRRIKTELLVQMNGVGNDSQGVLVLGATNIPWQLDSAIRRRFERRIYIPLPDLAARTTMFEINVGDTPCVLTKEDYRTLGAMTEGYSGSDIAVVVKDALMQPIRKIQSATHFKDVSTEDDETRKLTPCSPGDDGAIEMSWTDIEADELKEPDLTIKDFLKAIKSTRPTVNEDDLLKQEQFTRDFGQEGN

| Binder | Kd (Vps4^101-437-Hcp1 E322A) | Kd (Vps4^101-437-Hcp1 R325D) | Kd (Vps4^101-437-Hcp1) | Kd (Vps4^101-437-Hcp1 K321A) | Kd (Vps4^101-437 L151D) |
| --- | --- | --- | --- | --- | --- |
| B1 | 72 nM | 564 nM | 184 nM | 367 nM | – |
| B2 | – | – | – | – | 4400 nM |
